Where a chain is given by its changes, count along the chain named. Numbers in names are those of the source. Where two headings read alike, the source gives them in different places.
B1: G121S mutant L1Fc chimera (Fc fusion, UniProt P32004 20-1120, looked up)
chain: IQIPEEYEGHHVMEPPVITEQSPRRLVVFPTDDISLKCEASGKPEVQFRWTRDGVHFKPKEELGVTVYQSPHSGSFTITGNNSNFAQRFQGIYRCFASNKLSTAMSHEIRLMAEGAPKWPKETVKPVEVEEGESVVLPCNPPPSAEPLRIYWMNSKILHIKQDERVTMGQNGNLYFANVLTSDNHSDYICHAHFPGTRTIIQKEPIDLRVKATNSMIDRKPRLLFPTNSSSHLVALQGQPLVLECIAEGFPTPTIKWLRPSGPMPADRVTYQNHNKTLQLLKVGEEDDGEYRCLAENSLGSARHAYYVTVEAAPYWLHKPQSHLYGPGETARLDCQVQGRPQPEVTWRINGIPVEELAKDQKYRIQRGALILSNVQPSDTMVTQCEARNRHGLLLANAYIYVVQLPAKILTADNQTYMAVQGSTAYLLCKAFGAPVPSVQWLDEDGTTVLQDERFFPYANGTLGIRDLQANDTGRYFCLAANDQNNVTIMANLKVKDATQITQGPRSTIEKKGSRVTFTCQASFDPSLQPSITWRGDGRDLQELGDSDKYFIEDGRLVIHSLDYSDQGNYSCVASTELDVVESRAQLLVVGSPGPVPRLVLSDLHLLTQSQVRVSWSPAEDHNAPIEKYDIEFEDKEMAPEKWYSLGKVPGNQTSTTLKLSPYVHYTFRVTAINKYGPGEPSPVSETVVTPEAAPEKNPVDVKGEGNETTNMVITWKPLRWMDWNAPQVQYRVQWRPQGTRGPWQEQIVSDPFLVVSNTSTFVPYEIKVQAVNSQGKGPEPQVTIGYSGEDYPQAIPELEGIEILNSSAVLVKWRPVDLAQVKGHLRGYNVTYWREGSQRKHSKRHIHKDHVVVPANTTSVILSGLRPYSSYHLEVQAFNGRGSGPASEFTFSTPEGVPGHPEALHLECQSNTSLLLRWQPPLSHNGVLTGYVLSYHPLDEGGKGQLSFNLRDPELRTHNLTDLSPHLRYRFQLQATTKEGPGEAIVREGGTMALSGISDFGNISATAGENYSVVSWVPKEGQCNFRFHILFKALGEEKGGASLSPQYVSYNQSSYTQWDLQPDTDYEIHLFKERMFRHQMAVKTNGTGRVRLPPAGFATE
notes: also called G121S-L1Fc; not shown: immunoglobulin Fc, human
B2: L1Fc: soluble wild-type L1Fc chimeric protein (protein)
chain: B1 chain with S102G
modifications: left off: a dimerising Fc or GST
notes: soluble wild-type L1Fc chimeric protein

What was measured:
[1] = target: the molecule itself; assay: two-color FACS bead aggregation, mutant to mutant (FIG. 2B)
Method: Excess unbound protein was removed by washing with PBS/5% FCS. […] Samples were diluted 1:5000 into ice cold PBS and the proportion of 2 colour aggregates was assessed using a fluorescence activated cell sorter (Becton Dickenson FACSort). […] Every mutant protein was assayed at least 3 separate times and standardised to a wild-type control conducted in parallel.

[2] = target: T1, full-length wild-type human L1 expressed in COS7 cells (human, UniProt P32004 20-1257); assay: immunofluorescence of L1Fc on COS cells expressing wild-type L1
T1 construct: whole, on cells; also called wild-type L1; transmembrane L1
Method: Briefly, COS-7 cells were transiently transfected with 10 μg DNA per 150 mm culture dish, the soluble Fc chimeric protein was allowed to accumulate in the media for 6 days and was recovered and purified by protein A-Sepharose affinity chromatography. In the binding experiments, L1Fcs were cross-linked to anti-human Fc antibodies (50 μg/ml, Jackson Immunoresearch) for 1 hr at 37° C. […] Following incubation, the cells were fixed with 4% PFA, and processed for double-immunofluorescence detection. NP-1 was detected using a mouse anti-c myc antibody (clone 9E10, Sigma) and L1 using a rat monoclonal anti-L1 antibody. […] After secondary antibody incubation, the cells were washed with PBS and mounted in Mowiol (Calbiochem).

Plexin-A1 = Plexin-A1 (Homo sapiens, UniProt Q9UIW2); assay: Binding of L1Fc to Plexin-A1 expressing COS7 cells (immunofluorescence)
Sequence of Plexin-A1 (Q9UIW2 27-1896, species assumed): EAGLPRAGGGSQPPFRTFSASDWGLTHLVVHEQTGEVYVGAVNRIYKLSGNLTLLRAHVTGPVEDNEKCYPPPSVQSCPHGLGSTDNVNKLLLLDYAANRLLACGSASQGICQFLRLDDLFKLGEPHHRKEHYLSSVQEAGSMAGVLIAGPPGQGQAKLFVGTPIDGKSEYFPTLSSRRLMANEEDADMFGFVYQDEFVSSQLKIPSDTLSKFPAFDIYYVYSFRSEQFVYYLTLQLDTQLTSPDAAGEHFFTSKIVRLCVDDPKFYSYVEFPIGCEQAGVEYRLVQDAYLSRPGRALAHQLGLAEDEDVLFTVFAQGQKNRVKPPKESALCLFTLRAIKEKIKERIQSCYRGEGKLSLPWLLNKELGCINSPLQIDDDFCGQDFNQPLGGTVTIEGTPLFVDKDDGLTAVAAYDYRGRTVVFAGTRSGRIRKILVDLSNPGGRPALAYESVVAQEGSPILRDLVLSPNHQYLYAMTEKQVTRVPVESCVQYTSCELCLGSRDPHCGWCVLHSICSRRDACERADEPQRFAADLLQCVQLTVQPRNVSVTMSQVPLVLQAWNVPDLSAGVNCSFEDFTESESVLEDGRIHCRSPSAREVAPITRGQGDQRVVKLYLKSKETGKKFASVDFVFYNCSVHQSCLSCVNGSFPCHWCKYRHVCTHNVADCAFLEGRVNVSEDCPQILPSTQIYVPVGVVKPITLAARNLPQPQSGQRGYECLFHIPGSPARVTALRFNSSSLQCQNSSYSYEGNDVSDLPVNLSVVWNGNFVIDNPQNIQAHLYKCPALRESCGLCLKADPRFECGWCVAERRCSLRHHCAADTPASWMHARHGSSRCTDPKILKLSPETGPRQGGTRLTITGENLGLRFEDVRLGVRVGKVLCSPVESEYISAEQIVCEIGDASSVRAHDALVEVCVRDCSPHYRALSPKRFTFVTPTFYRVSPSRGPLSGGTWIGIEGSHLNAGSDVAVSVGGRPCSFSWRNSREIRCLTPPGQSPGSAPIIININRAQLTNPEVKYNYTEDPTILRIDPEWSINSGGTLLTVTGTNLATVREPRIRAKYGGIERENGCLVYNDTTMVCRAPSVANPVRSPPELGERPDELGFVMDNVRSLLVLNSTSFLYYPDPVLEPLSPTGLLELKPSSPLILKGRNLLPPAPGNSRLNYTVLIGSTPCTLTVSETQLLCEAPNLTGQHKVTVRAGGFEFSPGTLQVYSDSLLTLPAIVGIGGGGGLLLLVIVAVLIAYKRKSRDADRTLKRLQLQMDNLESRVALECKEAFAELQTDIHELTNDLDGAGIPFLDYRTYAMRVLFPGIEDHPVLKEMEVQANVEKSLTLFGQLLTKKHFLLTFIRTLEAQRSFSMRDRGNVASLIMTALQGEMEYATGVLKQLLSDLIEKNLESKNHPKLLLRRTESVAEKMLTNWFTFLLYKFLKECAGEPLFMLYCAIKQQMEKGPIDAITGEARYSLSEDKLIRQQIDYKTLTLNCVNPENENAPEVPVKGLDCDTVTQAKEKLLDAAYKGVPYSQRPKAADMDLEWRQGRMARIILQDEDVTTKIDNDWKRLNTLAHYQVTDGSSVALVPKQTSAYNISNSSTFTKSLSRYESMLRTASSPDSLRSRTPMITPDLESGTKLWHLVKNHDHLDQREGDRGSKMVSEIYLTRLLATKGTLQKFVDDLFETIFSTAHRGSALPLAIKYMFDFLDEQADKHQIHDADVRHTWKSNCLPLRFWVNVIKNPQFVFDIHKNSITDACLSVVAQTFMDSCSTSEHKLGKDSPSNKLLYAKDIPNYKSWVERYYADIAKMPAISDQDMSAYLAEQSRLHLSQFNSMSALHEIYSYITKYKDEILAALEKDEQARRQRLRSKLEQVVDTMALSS

[3] = test system: cortical axons repelled by Sema3A secreted from the ventral spinal cord; assay: Co-culture of cortical slices and ventral spinal cord explants (axon guidance response to Sema3A); assay type: cell-based, mice
Method: Blocks of cortex were dissected from P0 (postnatal day 0) to P2 mice and cut into 250 μm thick slices with a McIlwain tissue chopper. The ventral part of the cervical spinal cord was dissected and cut into 250 μm thick slices. Co-culture of cortical slices and ventral spinal cord explants were performed in a three-dimensional plasma clot, as described previously (Castellani et al., 2000). Cortical slices were oriented in the plasma clot as indicated in FIG. 1B to give to axons equivalent chances to be deflected away or towards the spinal cord explant. Purified wild-type or mutant L1Fc chimeras were added to the culture medium (3 μg/ml). Inhibitors of the guanylyl cyclase (ODQ, 10^−5 M, Sigma) and NOS (7NI, […], Sigma) were added to the culture medium, either alone or with wild-type L1Fc (3 μg/ml). After one or two days in vitro (DIV), the cultures were fixed with 4% paraformaldehyde (PFA) and analyzed by phase contrast microscopy (Axiovert 35-M, Zeiss). A qualitative guidance index was attributed to the co-cultures, to assess the degree of repulsive (negative values) or attractive (positive values) effects (Castellani et al., 2000). The index ranged from −2 (when most fibers grew away from the spinal cord explant) to +2 (when most fibers grew towards the explant), with intermediate situations (index of −1 and +1 for moderate guidance effects). An index of zero was attributed to the cultures showing no preferential growth. Quantitative analysis of axon length and number of axons growing from cortical slices was performed as described previously (Castellani et al., 2000). A proximal and a distal region, each of them covering a 600 μm-piece of cortical tissue were determined for each culture. All fibers extending from these two regions were counted and the length of the three longest fibers was measured, using computer analysis software (Visiolab 2000, Biocom). Immunofluorescence labeling of axons was performed using the mouse anti-phosphorylated neurofilament antibody SMI31 (Stemberger and Meyer Inc.), and Texas red-conjugated secondary anti-mouse antibody (see result obtained for number of axons and axonal length in the following tables 1 and 2).
It has been previously developed an assay system using explants of ventral spinal cord co-cultured with cortical axons in order to determine the factors involved in axonal repulsion and attraction (Castellani et al., 2000). Using this system we have shown that Sema3A secreted from the ventral spinal cord repels cortical axons. In the presence of soluble wild-type L1Fc chimeric protein however, repulsion is switched to attraction (Castellani et al., […]). In the present study, we aimed to identify the L1 interactions underlying the switching process. As Ig domains have been implicated in binding of Ig CAMs to many of their ligands (Brümmendorf and Rathjen, 1996) we hypothesized that they would also be required for L1 Fc-mediated switching. […] L1 Fc chimeras containing pathological missense mutations affecting specific Ig domains (De Angelis et al., 1999 and FIGS. 1A, 1B) were assessed for their ability to reverse Sema3A repulsion to attraction.

full length human L1 = target: T2, full length human L1 (Homo sapiens, UniProt P32004); assay: Binding of L1Fc chimeras to COS cells expressing wild-type L1 (immunofluorescence)
T2 construct: transiently transfected with expression vectors encoding full length human L1; expressed in transfected cells; host or cells: COS7
T2 sequence (P32004 20-1257): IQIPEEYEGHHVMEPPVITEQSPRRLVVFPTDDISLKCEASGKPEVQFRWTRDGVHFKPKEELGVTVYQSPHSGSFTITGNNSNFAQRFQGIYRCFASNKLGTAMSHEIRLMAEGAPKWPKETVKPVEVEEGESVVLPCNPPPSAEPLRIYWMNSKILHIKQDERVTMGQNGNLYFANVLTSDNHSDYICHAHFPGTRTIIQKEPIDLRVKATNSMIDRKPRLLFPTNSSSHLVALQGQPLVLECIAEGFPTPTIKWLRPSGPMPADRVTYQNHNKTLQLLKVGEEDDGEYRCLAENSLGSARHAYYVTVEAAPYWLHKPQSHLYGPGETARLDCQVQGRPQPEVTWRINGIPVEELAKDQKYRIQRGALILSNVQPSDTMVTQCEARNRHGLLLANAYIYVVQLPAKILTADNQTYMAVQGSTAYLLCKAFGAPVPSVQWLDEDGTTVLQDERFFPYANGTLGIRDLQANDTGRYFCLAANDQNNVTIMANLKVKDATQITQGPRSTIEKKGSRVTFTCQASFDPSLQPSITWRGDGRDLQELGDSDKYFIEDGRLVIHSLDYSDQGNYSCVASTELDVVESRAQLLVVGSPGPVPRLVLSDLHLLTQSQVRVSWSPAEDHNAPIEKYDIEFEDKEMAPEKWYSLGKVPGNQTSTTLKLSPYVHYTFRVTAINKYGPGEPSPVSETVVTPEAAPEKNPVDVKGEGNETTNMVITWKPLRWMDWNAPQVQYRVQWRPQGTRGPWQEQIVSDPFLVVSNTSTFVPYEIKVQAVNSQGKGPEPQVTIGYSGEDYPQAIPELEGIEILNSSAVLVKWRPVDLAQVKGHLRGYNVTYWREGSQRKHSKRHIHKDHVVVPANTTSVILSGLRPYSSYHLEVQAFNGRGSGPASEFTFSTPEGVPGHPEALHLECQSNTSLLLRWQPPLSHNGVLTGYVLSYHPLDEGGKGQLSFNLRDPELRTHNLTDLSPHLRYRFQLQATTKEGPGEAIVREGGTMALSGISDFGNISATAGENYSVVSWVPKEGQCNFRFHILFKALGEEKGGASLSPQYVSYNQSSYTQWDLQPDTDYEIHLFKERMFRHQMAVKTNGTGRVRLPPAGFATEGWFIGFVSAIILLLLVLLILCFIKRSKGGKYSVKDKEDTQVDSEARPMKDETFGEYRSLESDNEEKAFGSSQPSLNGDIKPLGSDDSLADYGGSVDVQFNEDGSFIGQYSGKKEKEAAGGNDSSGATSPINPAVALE
Method: The mutant L1Fc chimeras were produced and purified as described previously (De Angelis et al., 1999). Briefly, COS-7 cells were transiently transfected with 10 μg DNA per 150 mm culture dish, the soluble Fc chimeric protein was allowed to accumulate in the media for 6 days and was recovered and purified by protein A-Sepharose affinity chromatography. In the binding experiments, L1Fcs were cross-linked to anti-human Fc antibodies (50 μg/ml, Jackson Immunoresearch) for 1 hr at 37° C. Binding detection to NP-1 requested concentrations of L1Fcs 10 folds higher than L1. Antibody conjugated L1-Fc protein was then incubated with monolayers of COS7 cells transiently transfected with expression vectors encoding full length human L1 or myc-tagged NP-1 where the cytoplasmic domain is deleted (gift of J. Raper, 2000 and Renzi et al., 1999). Following incubation, the cells were fixed with 4% PFA, and processed for double-immunofluorescence detection. NP-1 was detected using a mouse anti-c myc antibody (clone 9E10, Sigma) and L1 using a rat monoclonal anti-L1 antibody. Secondary antibody anti-c-myc (Texas-red conjugated anti-mouse antibodies) was used to detect NP-1, anti-L1 (Texas red conjugated anti-rat antibodies) to detect L1, and anti-Fc (FITC conjugated anti-rabbit antibodies) to detect bound L1Fc chimeras. After secondary antibody incubation, the cells were washed with PBS and mounted in Mowiol (Calbiochem).
Thus, Ig CAMs F3 and TAG-1 (the rodent homologue of axonin-1) ate unlikely to be axonal receptors for L1Fc in the reversion process. […] In the present study however, mutated L1Fc proteins were required to interact with wild-type L1 expressed on growth cones. To formally exclude a role for homophilic binding of L1 in the initiation of the reversion process, it was therefore necessary to examine whether homophilic binding of the mutated L1Fc chimeras to wild-type L1 was also disrupted. Mutated L1Fcs were therefore incubated with COS7 cells transfected with full-length wild-type L1 cDNA and binding was assessed by immunofluorescence. In parallel, homophilic binding of mutant/mutant and mutant/wild-type L1Fcs was compared in a two-color FACS aggregation assay, allowing a quantitative assessment to be made (see Methods). […] Similarly, in the two color FACS assay homophilic binding was restored to 74.4% and 90.5% of wild-type levels for A426D and H210Q respectively (FIG. 2B). […] This mutation however still promoted the L1 Fc induced switching of Sema3A repulsion to attraction in the co-culture assay. Thus, the ability of L1Fc to switch Sema3A repulsion is not dependent on homophilic binding. Consequently, the trans interaction of L1Fc with L1 in the receptor complex is not required for the change in growth cone responsiveness to Sema3A.

[4] = Ctx/vSC co-culture, growth away from spinal cord explant, L1Fc 3 μg/ml, ODQ 10^−5 M
[5] = Ctx/vSC co-culture, growth towards spinal cord explant, L1Fc 3 μg/ml, ODQ 10^−5 M

Molecule	binding result [1]	binding result [2]	binding to Plexin-A1 expressing cells (Plexin-A1)	binding to Plexin-A1 expressing cells (Plexin-A1; listed as Wild-type L1 Fc)	Axonal length, Away [3, 4]	Number of axons, Away [3, 4]	Axonal length, Towards [3, 5]	Number of axons, Towards [3, 5]	switching of Sema3A repulsion to attraction by L1Fc chimera ([3]; chimera 3 μg/ml in culture medium)	guidance index ([3]; qualitative index from −2 (repulsion) to +2 (attraction), L1Fc chimeras 3 μg/ml, ODQ 10^−5M)	binding to wild-type L1 expressed in COS cells (full length human L1)	binding to wild-type L1 expressed in COS cells (full length human L1; listed as Wild-type L1 Fc)
B1	binds	no binding										
B2			no binding to Plexin-A1 expressing cells	not Plexin-A 1-expressing cells	198.6 +/− 4	5.8 +/− 0.7	346.8 +/− 5, *	22.6 +/− 1.6, *	switched repulsion to attraction	+1.5	clear binding	bound to L1

Source: patent US20060058504A1, “Peptides capable of inducing attraction to the axonal growth and their use for treating neurodegenerative diseases” (Centre National de la Recherche Scientific (CNRS), priority 2002, published 2006)
